Measured values from article PMC8405992 (2021).

Assays:
Experiment in all cases: NMR titration
K11-linked diubiquitin = K11-linked diubiquitin (Homo sapiens, UniProt P0CG48)
Ubp6-UBL 2-81 = target: T1, Ubp6-UBL 2-81 (Saccharomyces cerevisiae, UniProt P43593)
T1 chain: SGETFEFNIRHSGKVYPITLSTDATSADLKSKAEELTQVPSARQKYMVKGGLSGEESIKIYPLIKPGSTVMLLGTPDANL

Dsk2-UBL 2-77 = target: T2, Dsk2-UBL 2-77 (Saccharomyces cerevisiae, UniProt P48510)
T2 chain: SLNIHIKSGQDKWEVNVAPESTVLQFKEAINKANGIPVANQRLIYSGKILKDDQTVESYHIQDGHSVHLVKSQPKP

K48-linked diubiquitin = K48-linked diubiquitin (Homo sapiens, UniProt P0CG48)

B1: Rpn1 214-324 (protein)
chain: HNGEEDAVDLLLEIESIDKLPQFVDENTFQRVCQYMVACVPLLPPPEDVAFLKTAYSIYLSQNELTDAIALAVRLGEEDMIRSVFDATSDPVMHKQLAYILAAQKTSFEYE
modifications: K11-linked Ub2, distal Ub 15N-enriched
Work on B1 yielded a Kd (K11-linked diubiquitin) of 42 µM.

B2: Rpn1 214-355 (protein)
chain: HNGEEDAVDLLLEIESIDKLPQFVDENTFQRVCQYMVACVPLLPPPEDVAFLKTAYSIYLSQNELTDAIALAVRLGEEDMIRSVFDATSDPVMHKQLAYILAAQKTSFEYEGVQDIIGNGKLSEHFLYLAKELNLTGPKVPE
Binder B2 has a Kd (Ubp6-UBL 2-81) of 104 µM and a Kd (Dsk2-UBL 2-77) of 48 µM.

B3: Rpn1 214-355 (protein)
chain: B2 chain
modifications: K48-linked Ub2, distal Ub 15N-enriched
With B3 the Kd (K48-linked diubiquitin) was 288 µM.

B4: Rpn1 214-355 (protein)
chain: B2 chain
modifications: K11-linked Ub2, distal Ub 15N-enriched
With B4 the Kd (K11-linked diubiquitin) was 44 µM.
